Tests used:
[1] = molecular target: T1, mCRP (monomeric C-reactive protein) (UniProt P02741 19-224); assay: SPR
T1 sequence: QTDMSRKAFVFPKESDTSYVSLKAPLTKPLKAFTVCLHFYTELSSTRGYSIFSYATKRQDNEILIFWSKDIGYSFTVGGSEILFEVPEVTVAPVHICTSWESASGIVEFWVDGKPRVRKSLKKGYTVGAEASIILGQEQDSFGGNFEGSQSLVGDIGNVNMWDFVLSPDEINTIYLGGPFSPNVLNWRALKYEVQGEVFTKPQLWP

[2] = molecular target: T2, nCRP (native pentameric C-reactive protein) (UniProt P02741 19-224); assay: bead pull-down, Qubit ssDNA quantification
T2 sequence: T1 sequence

| Binder | Kd [1] [nM] | binding result [2] |
| --- | --- | --- |
| CCAATGGCCCTAGGGCTGCAAATCGCTGCC (ssDNA) [ApmCRP3] | 400 | – |
| TTGACCCTTTAAGGTCGTCCGGAAACGGGC (ssDNA) [ApmCRP4] | – | no binding |
